The target of test [1] is recombinant NP of influenza A/PR/8/34 (H1N1) purified from bacteria (Influenza A virus A/Puerto Rico/8/1934 …, UniProt P03466). As to the kind of experiment: far-Western, overlay or dot blot.
Test [2] concerns the target NP in H1N1 viral lysate (A/Puerto Rico/8/34) (Influenza A virus A/Puerto Rico/8/1934 …, UniProt P03466). As to the kind of experiment: far-Western, overlay or dot blot.
Test [3] addresses NP WT 1–498 (deletion library, wild type) (Influenza A virus A/California/07/2009 …, UniProt C6KQ05, strain). As to the kind of experiment: far-Western, overlay or dot blot.
The target in test [4] is recombinant nucleoprotein (NP) of influenza A/Brisbane/10/2007 (H3N2) (Influenza A virus A/Brisbane/10/2007 …, UniProt P03466, strain). As to the kind of experiment: BLI.

Experimental findings from PMC11994974 (Virus Research, 2025) are described below.

B1: anti-NP mouse monoclonal antibody HB65 (antibody, V domains shown)
VH: EVKLVESGGALVNPGGSLKLSCAASGFIFSSYAMSWIRQTPEKRLEWVASTSGGGTTYYLDSVRGRFTISRDNARRILYLQMTSLRSEDTAIYFCGRDGNWFTSWGQGTLVTVSI
VL: NIVMTQSPKSMSMSVGERVTLTCKASENVVTYVSWYQQKPEQSPKLLIYGASNRYTGVPDRFTGSGSATDFTLTISSVQAEDLADYHCGQGYSYPYTFGGGTKLEIK
For the molecule B1, the binding result in test [1], in test [2] and in test [3] was “binds” throughout. Besides, the Kd (in general, a measure of binding affinity in units of concentration) in test [4] was 120 ± 21 nM.
